The values below come from article doi:10.1101/2020.06.02.131169 (bioRxiv, 2020).

The target in data set [1] is bifunctional TreS-Mak of Estrella lausannensis (trehalose synthase-maltokinase) (Estrella lausannensis). In words: SEC.
The data set “SEC” deals with the molecule itself. In words: SEC.

In data set [1], “bifunctional TreS-Mak of Estrella lausannensis (trehalose synthase-maltokinase) (enzyme)” yielded a stoichiometry N of 2.

B1: GlgE of Estrella lausannensis (maltosyl-1-phosphate transferase) (enzyme, UniProt A0A0H5DRC6 1-675, looked up)
chain: MSVSAAEKRQLLTQVKASGSMYTNTLHSIVIQNISPKPEPFGPAKRVLLEQVEVEADIFTDPHTKLEADLIVKAPGLRKTTRIPFHPLVNDRFKAVFVPDTPGTYSFFVEAWVNPAALWQEDLRKKQEARLDLTVDLQIGAALLVEVADLLPPEESVKLLQIAKKLREQKGAEAVAFDPEIARLGRLARPKSRQGVCSQEQEVFVTRKKALFSTWYELFPRSCSGTMRHGTFNDVVAKLPRISRMGFDVLYLPPIHPIGKTKRKGKNNALTALPDDPGSPWAVGSHEGGHDAIQRELGTLADFERLVKEAESLGIEIALDIALQCSPDHPYLKEHPEWFLKRPDGTYQYAENPPKKYEDIIPFHFTEDNKDTLFREILRIFLFWMKRGVRIFRVDNPHTKPFALWEYVIGEVRKVDSGVIFLAEAFTRPKIMHHLARIGFDQSYTYFTWRNTKWELTEYLTELTKTEARNYLRPNFFVNTPDILPESLQWGGRAAFLTRLILAATLSSSYGIYGPAFEQMLSEAVPGKEDYIDSEKYEIKPWDFEKKGTISETIEIVNRIRKENPALQATGNLEFYATDNDYLLAYGKQGPQGESLLIVVNLDHYHTQSGYVTLPLMHLGIQEKEPYLVDDLLSGERYIWEGERNYIQLSPHLVPAHIFRIRPKMLRENNFDYFI
Turning to B1, the “stoichiometry N” value in “SEC” worked out at 2.
